Assay results published in US20040224408A1, “THAP proteins as nuclear receptors for chemokines and roles in transcriptional regulation, cell proliferation and cell differentiation” (published 2004).

How the values were obtained:
human THAP1 (THanatos …) = biological target: T1, human THAP1 (THanatos (death)-Associated Protein-1), full length (human, UniProt Q9NVV9 1-213); assay: yeast two-hybrid, both orientations (His/Ade selection)
T1 construct: also called hTHAP1; FLJ10477
T1 sequence: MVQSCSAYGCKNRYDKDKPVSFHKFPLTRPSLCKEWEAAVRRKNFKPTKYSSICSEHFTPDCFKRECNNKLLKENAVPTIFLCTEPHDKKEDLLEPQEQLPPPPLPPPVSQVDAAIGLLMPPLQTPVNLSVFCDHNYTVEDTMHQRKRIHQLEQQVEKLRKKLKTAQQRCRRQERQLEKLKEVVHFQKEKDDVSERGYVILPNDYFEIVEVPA
From the text: We then examined whether the leucine zipper/death domain at the C-terminus of Par4, previously shown to be involved in Par4 binding to WT-1 and aPKC, was required for the interaction between THAP1 and Par4. Two Par4 mutants were constructed for that purpose, Par4A and Par4DD. Par4A lacks the leucine zipper/death domain while Par4DD contains this domain. pGBKT7-Par4A(amino acids 1-276) and pGADT7-Par4A. were constructed by sub-cloning a EcoRI-BglII fragment from pGADT7-Par4 into the EcoRI and BamHI sites of pGBKT7 and pGADT7. Par4DD (amino acids 250-342) was amplified by PCR, using pGBKT7-Par4 as template, with primers Par4.4 (5′-[…]-3′) (SEQ ID NO: 193) and Par4.5, and cloned into the EcoRI and BamHI sites of pGBKT7 and pGADT7 to obtain pGBKT7-Par4DD and pGADT7-Par4DD. Two-hybrid interaction between THAP1 and Par4 mutants was tested by cotransformation of AH109 with pGBKT7-THAP1 and pGADT7-Par4A or pGADT7-Par4DD and selection of transformants by His and Ade double auxotrophy according to manufacturer's instructions ([…] two-hybrid system 3, Clontech). […] Similar results were obtained when two-hybrid experiments were performed in the opposite orientation using Par4 or Par4 mutants (Par4A and Par4DD) as baits instead of THAP1 (FIG. 3A).

[1] = biological target: T2, THAP1ΔQRCRR mutant (deletion of residues 168-172) (human, UniProt Q9NVV9 1-213); assay: yeast two-hybrid
T2 construct: Tested as a Gal4-BD fusion (pGBKT7), as in vitro translated protein and as an EGFP fusion; also called THAP1?QRCRR; THAP1?(QRCRR)
T2 sequence: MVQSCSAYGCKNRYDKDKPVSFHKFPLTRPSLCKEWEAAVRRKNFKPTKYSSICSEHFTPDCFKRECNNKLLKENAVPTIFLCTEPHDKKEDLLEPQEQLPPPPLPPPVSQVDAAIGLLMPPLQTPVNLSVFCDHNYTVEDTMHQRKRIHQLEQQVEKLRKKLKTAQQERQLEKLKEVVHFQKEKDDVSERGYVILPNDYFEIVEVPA
Procedure: (§1) Two-hybrid interaction between THAP1 mutants and Par4DD was tested by cotransformation of AH109 with pGBKT7-THAP1-C1, -C2, -C3, -N1, -N2 or -N3 and pGADT7-Par4DD and selection of transformants by His and Ade double auxotrophy according to manufacturer's instructions ([…] two-hybrid system 3, Clontech).
for mutant THAP1ΔQRCRR. The resulting PCR fragments were digested with EcoRI and BamHI, and cloned in frame downstream of the Gal4 Binding Domain (Gal4-BD) in pGBKT7 two-hybrid vector (Clontech) to generate pGBKT7-THAP1-RR/AA and −Δ(QRCRR), or downstream of the Enhanced Green Fluorescent Protein (EGFP) ORF in pEGFP.C2 vector (Clontech) to generate pEGFP.C2-THAP1-RR/AA and −Δ(QRCRR). THAP1 RR/AA and THAP1ΔQRCRR THAP1 mutants were then tested in the three THAP1/Par4 interaction assays (two-hybrid assay, in vitro THAP1/Par4 interaction assay, in vivo THAP1/Par4 interaction assay) as described above for the THAP1-C1, -C2, -C3, -N1, -N2 or -N3 mutants.

[2] = biological target: T3, THAP1-N2 deletion mutant (amino acids 1-166) (human, UniProt Q9NVV9 1-166); assay: yeast two-hybrid, pGBKT7-THAP1 mutant with pGADT7-Par4DD
T3 construct: Tested as a Gal4-BD or Gal4-AD fusion, as in vitro translated 35S-labelled protein and as an EGFP fusion
T3 sequence: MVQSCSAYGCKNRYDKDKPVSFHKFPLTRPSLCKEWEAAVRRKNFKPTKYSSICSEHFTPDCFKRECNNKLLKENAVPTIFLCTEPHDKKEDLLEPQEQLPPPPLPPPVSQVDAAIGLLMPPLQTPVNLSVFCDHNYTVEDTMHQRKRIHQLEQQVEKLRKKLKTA
Procedure: as §1

[3] = biological target: T4, THAP1-C3 deletion mutant (amino acids 143-213) (human, UniProt Q9NVV9 143-213); assay: as above
T4 construct: Tested as a Gal4-BD or Gal4-AD fusion, as in vitro translated 35S-labelled protein and as an EGFP fusion
T4 sequence: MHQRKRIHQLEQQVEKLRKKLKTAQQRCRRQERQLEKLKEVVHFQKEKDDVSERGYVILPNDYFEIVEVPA
Procedure: as §1

[4] = biological target: T5, THAP1-N3 deletion mutant (amino acids 1-192) (human, UniProt Q9NVV9 1-192); assay: as above
T5 construct: Tested as a Gal4-BD or Gal4-AD fusion, as in vitro translated 35S-labelled protein and as an EGFP fusion
T5 sequence: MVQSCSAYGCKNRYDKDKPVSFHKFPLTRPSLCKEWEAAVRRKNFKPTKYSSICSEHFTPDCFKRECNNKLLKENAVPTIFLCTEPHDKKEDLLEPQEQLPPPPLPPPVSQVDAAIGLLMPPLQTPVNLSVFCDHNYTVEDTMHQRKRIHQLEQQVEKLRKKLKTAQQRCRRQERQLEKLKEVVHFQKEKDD
Procedure: as §1

[5] = biological target: T6, THAP1-N1 deletion mutant (amino acids 1-90) (human, UniProt Q9NVV9 1-90); assay: as above
T6 construct: Tested as a Gal4-BD or Gal4-AD fusion, as in vitro translated 35S-labelled protein and as an EGFP fusion
T6 sequence: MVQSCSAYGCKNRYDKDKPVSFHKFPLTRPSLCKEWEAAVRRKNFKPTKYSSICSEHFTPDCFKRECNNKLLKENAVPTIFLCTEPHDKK
Procedure: as §1

[6] = biological target: T7, THAP1-C1 deletion mutant (amino acids 90-213) (human, UniProt Q9NVV9 90-213); assay: as above
T7 construct: Tested as a Gal4-BD or Gal4-AD fusion, as in vitro translated 35S-labelled protein and as an EGFP fusion; also called THAP1ΔTHAP; THAP1?THAP
T7 sequence: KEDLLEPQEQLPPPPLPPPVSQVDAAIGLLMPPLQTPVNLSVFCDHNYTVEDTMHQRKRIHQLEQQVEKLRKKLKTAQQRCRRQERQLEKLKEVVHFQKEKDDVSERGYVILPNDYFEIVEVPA
Procedure: as §1

[7] = biological target: T8, THAP1-C2 deletion mutant (amino acids 120-213) (human, UniProt Q9NVV9 120-213); assay: as above
T8 construct: Tested as a Gal4-BD or Gal4-AD fusion, as in vitro translated 35S-labelled protein and as an EGFP fusion
T8 sequence: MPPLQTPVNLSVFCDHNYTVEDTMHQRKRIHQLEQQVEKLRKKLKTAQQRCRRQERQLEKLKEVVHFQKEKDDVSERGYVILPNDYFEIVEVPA
Procedure: as §1

[8] = biological target: T3, THAP1-N2 deletion mutant (amino acids …); assay: GST pull-down, immobilized GST-Par4DD, in vitro translated 35S-labelled mutant
Procedure: (§2) THAP1 mutants were also tested in the in vitro THAP1/Par4 interaction assay. In vitro-translated THAP1 mutants were generated with the TNT-coupled reticulocyte lysate system (Promega, Madison, Wis., USA) using pGBKT7-THAP1-C1, -C2, -C3, -N1, -N2 or -N3 vector as template. 25 μl of each ³⁵S-labelled THAP1 mutant was incubated with immobilized GST or GST-Par4 protein overnight at 4° C., in the following binding buffer: 10 mM NaPO4 pH 8.0, 140 mM NaCl, 3 mM MgCl2, 1 mM dithiothreitol (DTT), 0.05% NP40, and 0.2 mM phenylmethyl sulphonyl fluoride (PMSF), 1 mM Na Vanadate, 50 mM β Glycerophosphate, 25 μg/ml chimotrypsine, 5 μg/ml aprotinin, 10 μg/ml Leupeptin. Beads were then washed 5 times in 1 ml binding buffer. Bound proteins were eluted with 2×Laemmli SDS-PAGE sample buffer, fractionated by 10% SDS-PAGE and visualized by fluorography using Amplify (Amersham Pharmacia Biotech). As expected, THAP1-C1, -C2, -C3, -and -N3 interacted with GST/Par4DD (FIG. 4B).

[9] = biological target: T6, THAP1-N1 deletion mutant (amino acids …); assay: as above
Procedure: as §2

[10] = biological target: T2, THAP1ΔQRCRR mutant (deletion of …); assay: in vitro THAP1/Par4 interaction assay (GST pull-down with GST-Par4DD)
Procedure: as §2
for mutant THAP1ΔQRCRR. The resulting PCR fragments were digested with EcoRI and BamHI, and cloned in frame downstream of the Gal4 Binding Domain (Gal4-BD) in pGBKT7 two-hybrid vector (Clontech) to generate pGBKT7-THAP1-RR/AA and −Δ(QRCRR), or downstream of the Enhanced Green Fluorescent Protein (EGFP) ORF in pEGFP.C2 vector (Clontech) to generate pEGFP.C2-THAP1-RR/AA and −Δ(QRCRR). […]

THAP1 THAP domain = biological target: T9, THAP1 THAP domain (Homo sapiens, UniProt Q9NVV9 SEQ:1-90); assay: EMSA; 20 mM Tris-HCl pH 7.5, 100 mM KCl, poly(dI-dC), room temperature; abrogated by 1,10-phenanthroline, restored by Zn; self-competed by 50-250x unlabelled probe; settings: tags: C-terminal His6 (pET-21c); label: 32P
T9 sequence: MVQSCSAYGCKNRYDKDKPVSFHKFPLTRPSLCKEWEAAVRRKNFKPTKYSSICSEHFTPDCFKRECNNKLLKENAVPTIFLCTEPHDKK
Procedure: Binding reactions were carried out for 10 minutes at room temperature in 20 μl binding buffer (20 mM Tris-HCl pH 7.5, 100 mM KCl, 0.1% NP-40, 100 μg/ml BSA, 2.5 mM DTT, 5% glycerol, 200 ng poly (dI-dC)). Electrophoresis was performed on 8% (29:1) polyacrylamide gels containing 5% glycerol. Gels were run in 0.25×TBE at 150V and 4° C., dried and exposed on a phosphoimager screen (Molecular Dynamics). Sequences of wild type and mutant THRE oligonucleotides used in EMSA experiments were as follow (mutations are indicated in bold): wild-type probe 3, 5′-[…]-3′ (SEQ ID NO: 313); mutant probe 3mut1, 5′-[…]-3′ (SEQ ID NO: 314); mutant probe 3mut3, 5′-[…]-3′ (SEQ ID NO: 319); mutant probe 3mut4, 5′-[…]-3′ (SEQ ID NO: 320); mutant probe 3mut14, 5′-[…]-3′ (SEQ ID NO: 321); mutant probe 3mut5, 5′-[…]-3′ (SEQ ID NO: 322).
For competition experiments, 50-, 150-, and 250-fold molar excess of unlabelled wild-type (THRE competitor, probe 3) or mutant (non-specific competitor, probe 3mut1) THRE oligonucleotides were added to the reaction mixture just before the addition of the probe.
Since the THAP domain is characterized by a C2-CH conserved motif that may function as a Zn-binding site, we then determined whether DNA-binding activity of the THAP domain is Zn-dependent. […]

B1: Par4 leucine zipper/death domain (Par4DD, amino acids 250-342) (other)
chain: GFPRYNRDANVSGTLVSSSTLEKKIEDLEKEVVTERQENLRLVRLMQDKEEMIGKLKEEIDLLNRDLDDIEDENEQLKQENKTLLKVVGQLTR
notes: also called myc-Par4DD; mycPar4DD
B1: binds (human THAP1 (THanatos …)); no binding [1]; no binding [2]. B1: binds [3]; binds [4]; no binding [5]. B1: binds [6]; binds [7].

B2: GST-Par4DD fusion protein (pGEX-2T-Par4DD, Par4 amino acids 250-342) (other)
chain: GFPRYNRDANVSGTLVSSSTLEKKIEDLEKEVVTERQENLRLVRLMQDKEEMIGKLKEEIDLLNRDLDDIEDENEQLKQENKTLLKVVGQLTR
notes: Expressed in E. coli DH5alpha and immobilized on glutathione sepharose; not shown: Glutathione S-transferase (GST) encoded by the pGEX-2T prokaryotic expression vector (Amersham Pharmacia Biotech); N-ter
B2: no binding [8]; no binding [9]; no binding [10].

B3: wild-type THRE probe 3 (dsDNA)
DNA 1: AGCAAGTAAGGGCAAACTACTTCAT
DNA 2: ATGAAGTAGTTTGCCCTTACTTGCT
B3: binds (THAP1 THAP domain).
